Experiment [1] concerns the target pro-N-cadherin (human) (UniProt P19022). In words: co-IP.
In experiment [2] the target is pro-E-cadherin (human) (UniProt P12830). In words: co-IP.
UniProt P12830, sequence (P12830 23-882): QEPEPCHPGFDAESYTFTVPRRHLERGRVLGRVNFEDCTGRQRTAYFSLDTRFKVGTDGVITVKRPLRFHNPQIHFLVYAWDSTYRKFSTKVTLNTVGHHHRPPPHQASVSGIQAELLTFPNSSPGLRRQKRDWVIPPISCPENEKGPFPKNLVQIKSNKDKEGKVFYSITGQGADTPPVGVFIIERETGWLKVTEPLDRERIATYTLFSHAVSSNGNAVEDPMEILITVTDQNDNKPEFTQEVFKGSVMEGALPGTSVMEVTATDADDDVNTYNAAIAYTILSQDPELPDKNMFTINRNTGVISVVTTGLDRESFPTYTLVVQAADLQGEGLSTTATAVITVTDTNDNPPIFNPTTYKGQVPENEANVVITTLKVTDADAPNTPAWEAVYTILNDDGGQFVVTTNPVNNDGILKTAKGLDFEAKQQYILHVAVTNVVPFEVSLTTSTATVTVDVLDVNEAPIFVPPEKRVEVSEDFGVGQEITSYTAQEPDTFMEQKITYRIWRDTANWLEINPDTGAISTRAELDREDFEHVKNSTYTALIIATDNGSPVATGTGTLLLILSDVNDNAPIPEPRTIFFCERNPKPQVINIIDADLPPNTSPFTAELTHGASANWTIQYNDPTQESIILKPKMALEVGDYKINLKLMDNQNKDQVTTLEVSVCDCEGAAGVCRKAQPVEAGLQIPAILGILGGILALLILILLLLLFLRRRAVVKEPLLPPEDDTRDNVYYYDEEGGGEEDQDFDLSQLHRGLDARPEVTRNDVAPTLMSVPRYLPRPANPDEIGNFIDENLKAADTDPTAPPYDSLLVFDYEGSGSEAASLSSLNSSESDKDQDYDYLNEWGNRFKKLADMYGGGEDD

α-catenin, sequence (P35221 whole entry): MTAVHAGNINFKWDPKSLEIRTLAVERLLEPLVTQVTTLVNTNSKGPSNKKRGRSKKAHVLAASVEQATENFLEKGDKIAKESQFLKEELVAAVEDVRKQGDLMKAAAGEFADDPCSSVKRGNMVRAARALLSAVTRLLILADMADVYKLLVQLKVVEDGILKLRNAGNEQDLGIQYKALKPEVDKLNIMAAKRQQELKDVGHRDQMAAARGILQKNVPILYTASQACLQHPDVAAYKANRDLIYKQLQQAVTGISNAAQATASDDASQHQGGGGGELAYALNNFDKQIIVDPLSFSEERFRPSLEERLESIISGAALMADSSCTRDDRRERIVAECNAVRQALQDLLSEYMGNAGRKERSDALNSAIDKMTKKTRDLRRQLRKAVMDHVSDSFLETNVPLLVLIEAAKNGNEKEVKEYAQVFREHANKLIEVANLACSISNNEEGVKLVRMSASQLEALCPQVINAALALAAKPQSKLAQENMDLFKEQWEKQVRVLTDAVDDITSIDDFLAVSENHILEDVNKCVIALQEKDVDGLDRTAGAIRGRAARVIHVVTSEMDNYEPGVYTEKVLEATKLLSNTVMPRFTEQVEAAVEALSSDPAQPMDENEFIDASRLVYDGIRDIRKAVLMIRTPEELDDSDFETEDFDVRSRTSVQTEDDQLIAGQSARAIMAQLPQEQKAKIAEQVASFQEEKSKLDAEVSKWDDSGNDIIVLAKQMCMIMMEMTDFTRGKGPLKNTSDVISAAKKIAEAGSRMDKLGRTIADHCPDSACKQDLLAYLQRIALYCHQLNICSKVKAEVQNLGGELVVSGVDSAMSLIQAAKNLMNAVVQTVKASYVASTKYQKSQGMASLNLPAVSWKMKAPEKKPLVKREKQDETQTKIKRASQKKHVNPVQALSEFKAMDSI
UniProt P19022, sequence (P19022 26-906): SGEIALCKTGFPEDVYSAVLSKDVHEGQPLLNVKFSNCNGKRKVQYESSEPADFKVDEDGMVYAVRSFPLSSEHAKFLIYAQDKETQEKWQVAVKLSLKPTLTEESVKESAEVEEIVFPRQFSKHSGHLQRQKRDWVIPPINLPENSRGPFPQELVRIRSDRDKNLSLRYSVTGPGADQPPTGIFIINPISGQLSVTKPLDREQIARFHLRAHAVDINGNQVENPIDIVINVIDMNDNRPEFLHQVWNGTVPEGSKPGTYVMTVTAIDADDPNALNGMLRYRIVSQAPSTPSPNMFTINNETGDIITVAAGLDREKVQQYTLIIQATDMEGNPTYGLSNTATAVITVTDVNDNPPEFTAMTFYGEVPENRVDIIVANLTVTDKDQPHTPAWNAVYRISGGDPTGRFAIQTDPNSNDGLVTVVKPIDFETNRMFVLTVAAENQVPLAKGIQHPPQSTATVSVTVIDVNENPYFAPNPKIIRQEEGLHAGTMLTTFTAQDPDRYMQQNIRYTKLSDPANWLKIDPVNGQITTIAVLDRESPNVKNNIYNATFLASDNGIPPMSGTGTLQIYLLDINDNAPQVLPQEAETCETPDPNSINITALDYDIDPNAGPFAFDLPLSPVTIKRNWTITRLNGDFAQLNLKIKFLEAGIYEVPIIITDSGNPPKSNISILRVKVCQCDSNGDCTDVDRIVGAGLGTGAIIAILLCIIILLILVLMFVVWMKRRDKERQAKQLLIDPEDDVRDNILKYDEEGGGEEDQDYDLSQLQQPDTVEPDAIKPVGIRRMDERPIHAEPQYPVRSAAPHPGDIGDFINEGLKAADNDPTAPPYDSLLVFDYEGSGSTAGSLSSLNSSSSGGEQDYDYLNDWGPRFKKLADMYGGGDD

As for “α-catenin (from UniProt P35221 1-906) (natural protein)”, the percent of pro-cadherin molecules in a complex with α-catenin is 92% in experiment [1] and 81% in experiment [2].

Source of the values: PMC2742162.
